Experimental data as given in FireProtDB (doi:10.1110/ps.38602).

B1: Ribonuclease H wild type, P29253 (protein)
chain: MNPSPRKRVALFTDGACLGNPGPGGWAALLRFHAHEKLLSGGEACTTNNRMELKAAIEGLKALKEPCEVDLYTDSHYLKKAFTEGWLEGWRKRGWRTAEGKPVKNRDLWEALLLAMAPHRVRFHFVKGHTGHPENERVDREARRQAQSQAKTPCPPRAPTLFHEEA
B2: Ribonuclease HI wild type, P0A7Y4 (protein)
chain: MLKQVEIFTDGSCLGNPGPGGYGAILRYRGREKTFSAGYTRTTNNRMELMAAIVALEALKEHCEVILSTDSQYVRQGITQWIHNWKKRGWKTADKKPVKNVDLWQRLDAALGQHQIKWEWVKGHAGHPENERCDELARAAAMNPTLEDTGYQVEV

Conditions: Thermus thermophilus (strain ATCC 27634 / DSM 579 / HB8); pH 5.5; 25 °C; GdnHCl; CD; NaOAc 20 mM; KCl 50 mM; reversible: yes; whole UniProt chain shown

Row | Protein | denaturant m value | unfolding free energy
1 | B1 | 4.4 kcal/mol/M | 12.2 kcal/mol

Same assay, conditions: Thermus thermophilus (strain ATCC 27634 / DSM 579 / HB8); pH 5.5; Thermal; CD; NaOAc 20 mM; KCl 50 mM; reversible: yes; whole UniProt chain shown

Row | Protein | Tm | heat capacity change of unfolding
2 | B1 | 86 °C | 1.8 kcal/mol/K

Same assay, conditions: Escherichia coli (strain K12); pH 5.5; 25 °C; GdnHCl; CD; NaOAc 20 mM; KCl 50 mM; reversible: yes; whole UniProt chain shown

Row | Protein | denaturant m value | unfolding free energy
3 | B2 | 4.9 kcal/mol/M | 7.6 kcal/mol

Same assay, conditions: Escherichia coli (strain K12); pH 5.5; 25 °C; Urea; CD; NaOAc 20 mM; KCl 50 mM; reversible: yes; whole UniProt chain shown

Row | Protein | denaturant m value | unfolding free energy
4 | B2 | 2.1 kcal/mol/M | 9.7 kcal/mol

Same assay, conditions: Escherichia coli (strain K12); pH 5.5; Thermal; CD; NaOAc 20 mM; KCl 50 mM; reversible: yes; whole UniProt chain shown

Row | Protein | Tm | heat capacity change of unfolding
5 | B2 | 66 °C | 2.7 kcal/mol/K
